{"source": "paper PMC2768864", "target": "Ixodes ricinus contact phase inhibitor (Ir-CPI) (Ixodes ricinus) (UniProt Q9GP15)", "sequence (Q9GP15 20-86)": "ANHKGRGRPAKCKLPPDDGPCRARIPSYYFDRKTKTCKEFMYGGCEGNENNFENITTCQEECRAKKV", "assay": "SPR"}
{"substance": "plasmin (enzyme)", "values": [{"measurement": "Ka", "result": "3.3e+08", "unit": "M⁻¹"}, {"measurement": "ka1 (two-state model, formation of AB)", "result": 900000, "unit": "M⁻¹ s⁻¹"}, {"measurement": "ka2 (two-state model, forward conformation change)", "result": 0.00582, "unit": "s⁻¹"}, {"measurement": "kd1 (two-state model, dissociation of AB)", "result": 0.00535, "unit": "s⁻¹"}, {"measurement": "kd2 (two-state model, backward conformation change)", "result": 0.00614, "unit": "s⁻¹"}]}
